Data: publication PMC11008599 (Frontiers in Immunology, 2024)

B1: aIL2_1-SNV-N (other)
chain: LKEVQDNIGSSCPESYRFHSDRWSRNCCIPDSWDDSYVWNCDHYAVRPAIGSLKRELADL
notes: also called aIL2_1, SNV-N framework; not shown: His8, C-terminal, kept
B2: aIL2_1-BECN1 (other, bovine (knob domain))
chain: YQREYSEFKRQQLELDDELGSSCPESYRFHSDRWSRNCCIPDSWDDSYVWNCDHYAVRPAIGSLIQELEDVEKNRKIVAENL
notes: also called aIL2_1, BECN1 framework; not shown: His8, C-terminal, kept

How the values were obtained:
human IL-2 [1] = target: T1, human IL-2 (human, UniProt P60568 21-153); assay: SPR; […], Biacore 8K+; […]; HBS-EP+; […]; conditions: both partners purified
T1 construct: The source is told for the ELISA; nothing else is said for the SPR
T1 sequence (P60568 21-153): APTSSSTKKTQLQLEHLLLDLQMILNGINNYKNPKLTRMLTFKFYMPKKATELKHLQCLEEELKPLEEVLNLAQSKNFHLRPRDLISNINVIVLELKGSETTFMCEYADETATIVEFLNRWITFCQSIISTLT

human IL-2 [2] = target: T1, human IL-2; assay: SPR; multicycle kinetics, Biacore 8K+; knob domain constructs immobilised on a CM5 chip via amine coupling, IL-2 in solution; HBS-EP+; two-state binding model, only the fastest association and the slowest dissociation rate constants reported; conditions: both partners purified

Binder	Kd (human IL-2 [1]) [nM]	Kd (human IL-2 [2]) [nM]
B1	9.4	
B2		10.8
